# T1: human iRhom2 (inactive rhomboid protein 2, isoform 1), endogenously expressed on human cells (human, UniProt Q6PJF5 1-856)
# T1 sequence: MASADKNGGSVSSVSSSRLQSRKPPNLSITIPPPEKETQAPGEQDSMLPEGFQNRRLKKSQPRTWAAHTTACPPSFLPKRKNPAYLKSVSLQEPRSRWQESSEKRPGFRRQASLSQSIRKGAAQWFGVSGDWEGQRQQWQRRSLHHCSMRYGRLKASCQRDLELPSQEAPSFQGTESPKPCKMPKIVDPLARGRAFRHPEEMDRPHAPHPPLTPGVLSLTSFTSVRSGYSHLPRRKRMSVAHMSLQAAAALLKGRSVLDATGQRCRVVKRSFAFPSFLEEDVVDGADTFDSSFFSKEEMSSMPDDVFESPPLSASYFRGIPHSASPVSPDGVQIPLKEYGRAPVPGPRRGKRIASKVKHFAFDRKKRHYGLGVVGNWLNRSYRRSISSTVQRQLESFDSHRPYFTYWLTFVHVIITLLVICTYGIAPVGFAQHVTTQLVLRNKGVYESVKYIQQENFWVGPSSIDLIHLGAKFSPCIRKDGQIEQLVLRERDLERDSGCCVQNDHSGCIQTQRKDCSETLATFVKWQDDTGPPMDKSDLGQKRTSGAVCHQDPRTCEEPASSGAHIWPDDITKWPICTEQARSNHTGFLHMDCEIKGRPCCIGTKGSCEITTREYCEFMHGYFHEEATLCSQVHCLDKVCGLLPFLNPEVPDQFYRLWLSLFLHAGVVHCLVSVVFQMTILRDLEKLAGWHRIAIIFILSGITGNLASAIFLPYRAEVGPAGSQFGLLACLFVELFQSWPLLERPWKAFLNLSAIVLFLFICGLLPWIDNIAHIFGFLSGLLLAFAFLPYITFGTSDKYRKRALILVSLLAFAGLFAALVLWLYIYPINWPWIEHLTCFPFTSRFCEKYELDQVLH
# T2: miR2-FL-WT-FLAG (mouse iRhom2 full length wild type C-terminally tagged with the triple-FLAG epitope) (mouse, UniProt Q80WQ6 1-827)
# T2 construct: also called expressed by MEF-DKO-miR2-FL-WT-FLAG cells
# T2 sequence: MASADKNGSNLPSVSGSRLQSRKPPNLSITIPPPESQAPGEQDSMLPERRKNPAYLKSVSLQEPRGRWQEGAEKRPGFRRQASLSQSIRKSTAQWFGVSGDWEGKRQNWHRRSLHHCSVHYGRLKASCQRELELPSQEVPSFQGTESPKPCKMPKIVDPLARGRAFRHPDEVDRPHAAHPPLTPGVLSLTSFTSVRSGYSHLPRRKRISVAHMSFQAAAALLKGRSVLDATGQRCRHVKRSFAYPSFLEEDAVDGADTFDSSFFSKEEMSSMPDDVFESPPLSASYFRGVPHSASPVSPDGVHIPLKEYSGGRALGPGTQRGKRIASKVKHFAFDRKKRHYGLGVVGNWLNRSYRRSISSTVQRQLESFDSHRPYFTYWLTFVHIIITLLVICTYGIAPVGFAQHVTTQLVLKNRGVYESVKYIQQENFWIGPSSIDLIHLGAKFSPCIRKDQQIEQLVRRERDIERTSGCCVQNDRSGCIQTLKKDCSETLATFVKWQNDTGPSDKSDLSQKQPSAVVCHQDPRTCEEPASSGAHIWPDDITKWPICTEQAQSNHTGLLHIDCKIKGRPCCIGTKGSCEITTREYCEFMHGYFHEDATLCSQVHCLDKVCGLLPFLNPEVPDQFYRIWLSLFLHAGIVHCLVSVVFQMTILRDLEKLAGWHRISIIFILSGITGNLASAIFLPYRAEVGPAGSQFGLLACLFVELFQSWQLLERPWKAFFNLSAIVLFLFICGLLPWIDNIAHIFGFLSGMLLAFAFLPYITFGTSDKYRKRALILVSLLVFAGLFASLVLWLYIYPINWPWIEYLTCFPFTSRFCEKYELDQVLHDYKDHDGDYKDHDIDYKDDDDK
# What was measured:
# [1] = target: T1, human iRhom2 (inactive rhomboid protein …); assay: cell-based or functional assay
# [2] = target: T2, miR2-FL-WT-FLAG (mouse iRhom2 full …); assay: FACS, MEF-DKO-miR2-FL-WT-FLAG cells
# Description: In brief, immortalized MEF-DKO-EV control cells, MEF-DKO-hiR2-FL-WT-FLAG cells and MEF-DKO-miR2-FL-WT-FLAG cells were harvested with 10 mM EDTA in PBS, washed and resuspended in FACS buffer (PBS, 3% FBS, 0.05% sodium azide), and seeded in Nunc U-bottom 96-well plates (Thermo Fisher Scientific, USA) at approximately 3×10⁵ cells per well. To pellet cells and remove supernatants, the plates were centrifuged at 1,500 rpm and 4° C. for 3 minutes. For primary staining, cells were resuspended in 100 μl per well of either FACS buffer alone (controls), mouse monoclonal anti-FLAG IgG (Sigma-Aldrich, USA) at 3 μg/ml FACS buffer or the antibodies of the present disclosure also at 3 μg/ml FACS buffer and incubated on ice for 1 hour. Afterwards, plates were centrifuged at 1,500 rpm and 4° C. for 3 minutes and washed twice with 200 μl per well of FACS buffer. For secondary staining, cells were spun down and resuspended in 100 μl per well of PE-conjugated goat anti-mouse IgG F(ab′)2 detection fragment (Dianova, Germany) diluted 1:100 in FACS buffer. Protected from light, the cell suspensions were incubated on ice for 1 hour. Plates were then centrifuged at 1,500 rpm and 4° C. for 3 minutes and washed three times with 200 μl per well of FACS buffer. Finally, cells were resuspended in 150 μl per well of FACS buffer and analyzed using a BD Accuri™ C6 Plus flow cytometer (Becton Dickinson, Germany).
Binder,"inhibition of LPS-induced release of TNFα from THP-1 cells, recombinant antibody [1] [% inhibition]",binding result [2]
"antibody 56 (antibody, V domains shown, Mouse IgG, kappa light chain; also called clone #56) VH: QVTLKESGPGILQPSQTLSLTCSFSGFSLSTFGMGVGWIRQPSGKGLEWLTNIWWDDDKYYNSVLKSRLTISKDTSKNQVFLKIANVDTADTATYYCARIAAYGSNYWYFDVWGTGTTVTVSS VL: QIVLTQSPAIMSASPGEKVTMTCSASSSVSYMYWYQQKPGSSPRVLIYDTSNLSSGVPVRFSGSGSGTSYSLTISRMEAEDAATYYCQQWSSYPLTFGAGTKLELK",65.8,no binding (tested: 3 µg/ml)
"antibody 54 (antibody, V domains shown, Mouse IgG, kappa light chain; also called clone #54) VH: QVTLKESGPGILQPSQTLSLTCSFSGFSLSTFGLGVGWIRQPSGKGLECLAHIWWDDDKYSNPALKSRLTISKDTSKNQVFLKIANVDSADTATYFCARILNYGSNYWYFDVWGTGTTVTVSS VL: QIVLTQSPALMSASPGEKVTMTCSASSSISYMYWYQQKPGSSPRLLIYDTSNLASGVPVRFSGSGSGTSFSLTVSRMEAEDAATYYCQQWNSYPLTFGAGTKLELK",67.9,no binding (tested: 3 µg/ml)

# — patent US20240174744A1 (SCIRHOM, published 2024)
